Measured values published in patent publication US20240343817A1 (STAIDSON BEIJING BIOPHARMACEUTICALS, published 2024).
Substitutions are numbered along the chain they refer to. One block for each binder: values may come before it.

How the values were obtained:
[1] = molecular target: T1, human CD40 extracellular domain (recombinant) (human, UniProt P25942 21-193); assay: affinity assay not described (data not shown)
T1 construct: Extracellular domain expressed in 293F cells; also called hCD40; CD40-His; not shown: tag (His, Avi-His, mouse Fc or human Fc)

human CD40 on cells [2] = molecular target: T2, human CD40 on cells (human, UniProt P25942 21-277); assay: cell-based or functional assay
human TNFRSF11A = molecular target: T3, human TNFRSF11A (human, UniProt Q9Y6Q6 30-212); assay: ELISA; protein coated, antibody titrated, anti-human IgG-HRP
T3 construct: Bought protein coated on the ELISA plate; also called TNFRSF11A (Sino biological, 16078-h08h)
T3 sequence (looked up): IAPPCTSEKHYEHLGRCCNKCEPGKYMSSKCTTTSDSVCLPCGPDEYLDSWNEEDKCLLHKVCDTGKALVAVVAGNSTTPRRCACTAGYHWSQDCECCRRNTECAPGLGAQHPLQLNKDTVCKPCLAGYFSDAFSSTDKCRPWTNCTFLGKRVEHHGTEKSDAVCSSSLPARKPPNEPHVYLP
Procedure: (§1) The cross-reactivities between anti-CD40 antibodies and the protein homologous with CD40 were detected. It was well known that there is high sequence homology among TNFR superfamily members. When compared with CD40 sequence. TNFRSF11A (38.95% homology) and INFR2 (37.20% homology) are with the highest homology. The cross-reactions between the two proteins and anti-CD40 antibody were detected by ELISA. respectively. Briefly, human TNFRSF11A (Sino biological, 16078-h08h), human TNFR2 (Sino biological, 10417-h08h) or the human CD40 extracellular domain protein prepared in example 1 was coated on ELISA plate and incubated at 4° C. overnight, respectively. After serial dilution, the optimized full-length anti-CD40 antibodies were added into 96 well plates and incubated respectively. After washing with TBST solution, the anti-human IgG-HRP antibody was added and incubated at RT. After washing with PBST, TMB was added into each well for development. Plates were read for the absorbance at 450 nm.

human TNFR2 = molecular target: T4, human TNFR2 (human, UniProt P20333 23-257); assay: as above
T4 construct: Bought protein coated on the ELISA plate; also called TNFR2 (Sino biological, 10417-h08h); INFR2
T4 sequence (looked up): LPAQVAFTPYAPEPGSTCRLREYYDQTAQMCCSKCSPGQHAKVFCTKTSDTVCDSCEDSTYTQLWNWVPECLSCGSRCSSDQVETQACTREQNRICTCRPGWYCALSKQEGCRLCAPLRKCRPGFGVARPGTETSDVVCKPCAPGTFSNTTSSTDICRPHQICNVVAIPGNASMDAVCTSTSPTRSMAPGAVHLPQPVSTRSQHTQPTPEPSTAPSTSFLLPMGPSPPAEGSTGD
Procedure: as §1

[3] = molecular target: T1, human CD40 extracellular domain …; assay: SPR, Biacore 8K; antibody on CM5 chip, hCD40 at various concentrations
Procedure: The binding affinity of the optimized anti-CD40 antibodies with human […] was characterized using Biacore 8K (GE). Anti-CD4 (antibodies were stabilized on sensor chip CM5 The affinities for hCD40 at various concentrations were measured. Using the SPR technology, the association and dissociation rates were measured, and binding affinity was determined.

[4] = molecular target: T1, human CD40 extracellular domain …; assay: ELISA, plate coated with recombinant human CD40 extracellular domain, antibody (human IgG4 format) in serial dilution, anti-human IgG-HRP, OD450
Procedure: (§2) ELISA Binding Assay: The selected monoclonal full-length antibodies D1, D2, D3, D5, D6, or D7 were subjected to binding assays with CD40 extracellular domain of different species, respectively. The assay was designed to identify full-length antibodies that cross-reacted with CD40 of different species. Briefly, the human or Rhesus monkey CD40 prepared in example 1 was dissolved in PBS and coated on […] with 0.1 μg/well followed by incubation at 4° C. overnight. The 96-well plates were washed with TBST before adding antibodies, blocked with 5% milk for 1-2 h at 37° C., and washed again with TBST. Firstly, each antibody sample was diluted to 10 μg/mL, and then serially diluted at a 1:3 ratio. 100 μL of serially diluted antibodies were added to each well and incubated for 1 h at 37° C. After washing with TBST for 6 times, 100 μL of the secondary antibody (goat anti-human IgG-HRP (Sigma. A8667)) was added to each well and incubated for 1 h at 37° C. After washing with TBST for 3 times, TMB was added with 100 μL/well and incubated for 10-20 minutes at 37° C. 2M H₂SO₄ was used to stop the reaction and plates were read for the absorbance at 450 nm. The ELISA results were then analyzed and the binding curves were generated by PRISM.
(§3) The biding affinity of the optimized full length CD40 antibodies with human or rhesus monkey CD40 was evaluated by Elisa according to the corresponding protocol as described in Example 2, and ASKP1240 was used as control.

[5] = molecular target: T5, Rhesus monkey CD40 extracellular domain (recombinant) (Rhesus monkey, UniProt F6SNI1 21-193); assay: ELISA, plate coated with recombinant rhesus monkey CD40 extracellular domain, antibody (human IgG4 format) in serial dilution, anti-human IgG-HRP, OD450
T5 construct: extracellular domain; also called RheCD40
Procedure: as §2, §3

human CD40 on cells [6] = molecular target: T2, human CD40 on cells; assay: cell-based or functional assay; remark: listed apart in the source
[7] = molecular target: human CD40 extracellular domain (recombinant) (human) (UniProt P25942); assay: SPR, Biacore 8K; antibody on CM5 chip, hCD40 at various concentrations
[8] = molecular target: Rhesus monkey CD40 extracellular domain (recombinant) (Rhesus monkey) (UniProt F6SNI1); assay: ELISA; CD40 extracellular domain coated 0.1 µg/well, antibody titrated from 10 µg/mL 1:3, anti-human IgG-HRP
[9] = molecular target: human CD40 extracellular domain (recombinant) (human) (UniProt P25942); assay: as above
[10] = molecular target: human CD40 extracellular domain (recombinant) (human) (UniProt P25942); assay: ELISA, plate coated with recombinant human CD40 extracellular domain, antibody in serial dilution, anti-human IgG-HRP, OD450
[11] = molecular target: Rhesus monkey CD40 extracellular domain (recombinant) (Rhesus monkey) (UniProt F6SNI1); assay: ELISA, plate coated with recombinant rhesus monkey CD40 extracellular domain, antibody in serial dilution, anti-human IgG-HRP, OD450

T1 sequence (P25942 21-193): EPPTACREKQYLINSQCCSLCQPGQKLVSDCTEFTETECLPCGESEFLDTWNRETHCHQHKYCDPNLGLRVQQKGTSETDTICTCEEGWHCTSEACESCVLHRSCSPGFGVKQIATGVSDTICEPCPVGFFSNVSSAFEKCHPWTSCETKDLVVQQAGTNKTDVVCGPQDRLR
Chain of human CD40 extracellular domain (recombinant) (human) (P25942 21-193): as above
T2 sequence (P25942 21-277 limits assumed): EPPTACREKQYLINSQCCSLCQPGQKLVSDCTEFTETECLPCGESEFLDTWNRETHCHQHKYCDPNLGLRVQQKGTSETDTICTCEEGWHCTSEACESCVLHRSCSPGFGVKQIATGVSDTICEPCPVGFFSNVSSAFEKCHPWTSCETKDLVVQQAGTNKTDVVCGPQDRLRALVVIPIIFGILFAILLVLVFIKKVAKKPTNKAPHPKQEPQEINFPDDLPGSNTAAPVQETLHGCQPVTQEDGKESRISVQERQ
Chain of Rhesus monkey CD40 extracellular domain (recombinant) (Rhesus monkey) (F6SNI1 entry or part of it): as the sequence (P25942 21-193) above, with G43S, H56R, W89L, T92M, A95S, L101P, S106L, H142R, L172Q counted along it

- binding result [1]: binds
B1: D11 (antibody, IgG4, V domains shown)
VH: QVQLVQSGAEVKKPGASVKVSCKASVYSFTGYTVNWVRQAPGQRLEWMGLINPYNGGTTYNQKFKGRVTLTIDKSASTAYMELSSLRSEDTAVYYCASSYYSNPYAMDYWGQGTLVTVSS
VL: EIVMTQSPATLSVSPGERATLSCKASQNVHTAVAWYQQKPGQAPRLLIYLASDRRTGIPARFSGSGSGTEFTLTISSLQSEDFAVYYCLQHWNYPLTFGQGTKVEIK
notes: Humanized form of D1; recombined with human IgG constant regions (preferably IgG4 heavy chain and kappa light chain); also called humanized anti-CD40 antibody D11

- IC50, HEK-Blue CD40L NF-κB activation assay (SEAP), antibody as human IgG4 (human CD40 on cells [2]): 0.0122 µg/mL
- binding result (human TNFRSF11A): no binding (tested: 10 µg/mL)
- binding result (human TNFR2): no binding (tested: 10 µg/mL)
- Kd [3]: 1.63 nM
- koff [3]: 0.000494 s⁻¹
- kon [3]: 304000 M⁻¹ s⁻¹
- EC50 (read off the curve) [4]: ~0.2 µg/mL
- EC50 (read off the curve) [5]: ~0.1 µg/mL
B2: D33 (antibody, human IgG4, V domains shown)
VH: B1 VH with Y54L, N103T
VL: B1 VL with A32R
notes: also called optimized anti-CD40 antibody D33

- IC50, HEK-Blue CD40L NF-κB activation assay (SEAP), antibody as human IgG4 (human CD40 on cells [2]): 0.0114 µg/mL
- binding result (human TNFRSF11A): no binding (tested: 10 µg/mL)
- binding result (human TNFR2): no binding (tested: 10 µg/mL)
- Kd [3]: 1.59 nM
- koff [3]: 0.000303 s⁻¹
- kon [3]: 191000 M⁻¹ s⁻¹
- EC50 (read off the curve) [4]: ~0.2 µg/mL
- EC50 (read off the curve) [5]: ~0.1 µg/mL
B3: D47 (antibody, human IgG4, V domains shown)
VH: B1 VH with N55T, M107S
VL: B1 VL with A32R, N93T
notes: also called optimized anti-CD40 antibody D47

- IC50, HEK-Blue CD40L NF-κB activation assay (SEAP) (human CD40 on cells [6]): 0.0134 µg/mL
- IC50, HEK-Blue CD40L NF-κB activation assay (SEAP), Fc-3*G4S-CD40L stimulus (human CD40 on cells [6]): 0.0111 µg/mL
- Kd [7]: 2.07 nM
- koff [7]: 0.000617 s⁻¹
- kon [7]: 298000 M⁻¹ s⁻¹
- EC50 [8]: 0.181 µg/mL
- EC50 [9]: 0.211 µg/mL
- EC50 (read off the curve) [10]: 0.1 µg/mL
- EC50 (read off the curve) [11]: 0.1 µg/mL
B4: ASKP1240 (antibody, INN chains, looked up, V domains shown)
VH: QLQLQESGPGLLKPSETLSLTCTVSGGSISSPGYYGGWIRQPPGKGLEWIGSIYKSGSTYHNPSLKSRVTISVDTSKNQFSLKLSSVTAADTAVYYCTRPVVRYFGWFDPWGQGTLVTVSS
VL: AIQLTQSPSSLSASVGDRVTITCRASQGISSALAWYQQKPGKAPKLLIYDASNLESGVPSRFSGSGSGTDFTLTISSLQPEDFATYYCQQFNSYPTFGQGTKVEIK
modifications: IgG4
